Laboratory results as given in IntAct's records for PubMed 17579517.

B1: Serine/threonine-protein kinase PINK1, mitochondrial (Homo sapiens), Q9BXM7-1 (parent)
chain: MAVRQALGRGLQLGRALLLRFTGKPGRAYGLGRPGPAAGCVRGERPGWAAGPGAEPRRVGLGLPNRLRFFRQSVAGLAARLQRQFVVRAWGCAGPCGRAVFLAFGLGLGLIEEKQAESRRAVSACQEIQAIFTQKSKPGPDPLDTRRLQGFRLEEYLIGQSIGKGCSAAVYEATMPTLPQNLEVTKSTGLLPGRGPGTSAPGEGQERAPGAPAFPLAIKMMWNISAGSSSEAILNTMSQELVPASRVALAGEYGAVTYRKSKRGPKQLAPHPNIIRVLRAFTSSVPLLPGALVDYPDVLPSRLHPEGLGHGRTLFLVMKNYPCTLRQYLCVNTPSPRLAAMMLLQLLEGVDHLVQQGIAHRDLKSDNILVELDPDGCPWLVIADFGCCLADESIGLQLPFSSWYVDRGGNGCLMAPEVSTARPGPRAVIDYSKADAWAVGAIAYEIFGLVNPFYGQGKAHLESRSYQEAQLPALPESVPPDVRQLVRALLQREASKRPSARVAANVLHLSLWGEHILALKNLKLDKMVGWLLQQSAATLLANRLTEKCCVETKMKMLFLANLECETLCQAALLLCSWRAAL
partner: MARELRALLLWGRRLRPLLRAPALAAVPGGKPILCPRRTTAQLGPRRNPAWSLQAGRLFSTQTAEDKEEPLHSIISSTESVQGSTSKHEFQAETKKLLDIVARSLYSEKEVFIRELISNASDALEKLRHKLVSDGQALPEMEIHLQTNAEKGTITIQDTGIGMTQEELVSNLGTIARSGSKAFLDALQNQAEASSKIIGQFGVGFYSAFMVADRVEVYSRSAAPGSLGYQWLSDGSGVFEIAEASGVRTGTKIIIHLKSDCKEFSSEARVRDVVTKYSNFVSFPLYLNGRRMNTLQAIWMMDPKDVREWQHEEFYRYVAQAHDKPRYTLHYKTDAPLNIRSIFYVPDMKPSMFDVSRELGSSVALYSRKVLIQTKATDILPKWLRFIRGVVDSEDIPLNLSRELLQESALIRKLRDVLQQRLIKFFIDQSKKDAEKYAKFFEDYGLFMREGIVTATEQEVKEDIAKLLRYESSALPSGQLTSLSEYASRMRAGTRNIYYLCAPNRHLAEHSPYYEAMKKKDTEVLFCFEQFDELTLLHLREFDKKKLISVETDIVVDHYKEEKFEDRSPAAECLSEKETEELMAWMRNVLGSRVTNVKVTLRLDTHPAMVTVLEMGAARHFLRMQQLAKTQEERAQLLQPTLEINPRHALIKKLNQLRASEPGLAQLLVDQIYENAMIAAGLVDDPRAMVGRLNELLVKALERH

Variants of: B1
Conditions: with trap1_human TRAP1, Q12931

Effect of a mutation on the interaction, decreasing interaction:
L347P
D362A
G309D
K219A;D362A;D384A
D384A
